Data published in PMC6318259, “Distinct Stabilities of the Structurally Homologous Heptameric Co-Chaperonins GroES and gp31” (Journal of the American Society for Mass Spectrometry, 2018).

Target: the molecule itself
Test: native MS; 10 μM monomer in 10 mM aqueous ammonium acetate, pH 6.8; nano-electrospray, modified Orbitrap (Exactive Plus / Q-Exactive EMR); oligomeric state of the protein with itself

| Protein | stoichiometry N |
| --- | --- |
| GroES (natural protein, Escherichia coli, GroES, co-chaperonin of Escherichia coli; homo-heptamer of 10.4 kDa subunits; The printed subunit mass of 10.4 kDa fits the whole protein; also called GroES heptamer; co-chaperonin GroES; source: over-expressed in E. coli strain MC1009, purified as described previously) MNIRPLHDRVIVKRKEVETKSAGGIVLTGSAAAKSTRGEVLAVGNGRILENGEVKPLDVKVGDIVIFNDGYGVKSEKIDNEEVLIMSESDILAIVEA | 7 |
| gp31 (natural protein, bacteriophage T4, gp31, co-chaperonin encoded by bacteriophage T4, structural homologue of GroES; heptamer of identical 12 kDa subunits; The printed subunit mass of 12 kDa fits the whole protein; also called gp31 heptamer; source: over-expressed in E. coli strain MC1009, purified as described previously) MSEVQQLPIRAVGEYVILVSEPAQAGDEEVTESGLIIGKRVQGEVPELCVVHSVGPDVPEGFCEVGDLTSLPVGQIRNVPHPFVALGLKQPKEIKQKFVTCHYKAIPCLYK | 7 |
